Experimental findings from the supplement of paper PMC12764529 are described below.

± gives the half width of the 95% confidence interval.

Data set [1] can be described thus: folding stability dG unfold from trypsin proteolysis; higher = more stable. A digest of the protocol:
(§1)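 How resistant each design was to proteolysis was captured as K50, inferred by Bayesian fitting of sequencing counts. Unfolding free energy was then derived relative to a sequence-predicted unfolded-state K50 and a shared folded-state K50, per protease or combined. Digestion used trypsin and chymotrypsin at 11 threefold-diluted concentrations plus a no-protease condition, on mini-proteins under 80 residues without cysteine in a PA-tagged cDNA display construct. Designs were kept only when AlphaFold2 dimer inter-PAE was above 15.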

A short description of data set [2]: folding stability dG unfold (combined trypsin and chymotrypsin); higher = more stable. A digest of the protocol:
as §1

A short description of data set [3]: folding stability dG unfold from chymotrypsin proteolysis; higher = more stable. A digest of the protocol: as §1

Regarding “SAGGSAGGSAGGKTLTLEIEINGKLYKIEFSGDSIKITEIKVKPKPKKKEFFSEEELKKKSAGGSAGGSAGG [r7_748_TrROS_Hall]”, the results for the “folding stability dG unfold” value in data set [1], in data set [2] and in data set [3] were 0.563 ± 0.089 kcal/mol, 1.87 ± 0.31 kcal/mol and 2.55 ± 0.13 kcal/mol, respectively.
The corresponding values for “SAGGSAGGSAGGKTYKITVSSGDTYLTISIELPDGLVLTYKITPNSIEVEIKPLKDFNESAGGSAGGSAGGS [r10_1169_TrMRF]” are 3.42 ± 0.19 kcal/mol, 5.51 ± 0.43 kcal/mol and 5.3 ± 0.2 kcal/mol.
Taken in the same sequence, the figures for “SAGGSAGGSAGGKTYRVKVRIYNPETGEVLEIEVEVETDTEEEAKRAAENLARELLKKSSAGGSAGGSAGGS [r10_863_TrROS_Hall]” were 2.69 ± 0.045 kcal/mol, 3.47 ± 0.12 kcal/mol and 3.7 ± 0.058 kcal/mol.
As to “SAGGSAGGSAGGKTYTADEIKKIKKINGKWYVEIDGKTYEIPAKDIKIKKGDKIKIYPVSAGGSAGGSAGGS [r10_665_TrROS_Hall]”, the “folding stability dG unfold” value in data set [1] was 1.45 ± 0.059 kcal/mol; in data set [2], 1.57 ± 0.16 kcal/mol; in data set [3], 1.59 ± 0.091 kcal/mol.
“SAGGSAGGSAGGKVEIYENPSTPYLVVVVYNPETGEKTVVLFKPDNPELAEKVAKELASSAGGSAGGSAGGS [r10_1117_TrMRF]”: the “folding stability dG unfold” value in data set [1] was 0.711 ± 0.077 kcal/mol; in data set [2] it was 1.38 ± 0.11 kcal/mol; in data set [3], 1.81 ± 0.16 kcal/mol.
With “SAGGSAGGSAGGKVITVELPDDVTVTFFIPEDPDIVPVEVTPPDGSTLTLPAKDIRELLGSAGGSAGGSAGG [r7_769_TrMRF]”, the “folding stability dG unfold” value in data set [1] came to 0.159 ± 0.049 kcal/mol; in data set [2], 0.364 ± 0.1 kcal/mol; in data set [3] it was 0.49 ± 0.12 kcal/mol.
Taken in the same sequence, the figures for “SAGGSAGGSAGGKVKIVSVSYDPETGKLTVEVEIPNPKKLLTVTTDNPNIPAEEIAKKLASAGGSAGGSAGG [r7_833_TrMRF]” were 0.453 ± 0.091 kcal/mol, 0.362 ± 0.15 kcal/mol and 0.058 ± 0.056 kcal/mol.
For “SAGGSAGGSAGGKVTVTPDGRLVIEKPKVTVEPVEVEEVEVELELKLSPEELEELLKKLSAGGSAGGSAGGS [r10_1096_TrROS_Hall]”, the “folding stability dG unfold” value in data set [1] came to 0.51 ± 0.17 kcal/mol; in data set [2] it was 0.554 ± 0.19 kcal/mol; in data set [3], 0.745 ± 0.044 kcal/mol.
Turning to “SAGGSAGGSAGGKVVKFTRPDGKPVDAKKILSYDPDKPKLYVLVEDEGPVELREVDADKDSAGGSAGGSAGG [r7_236_TrMRF]”, the “folding stability dG unfold” value in data set [1] is -0.245 ± 0.22 kcal/mol; in data set [2], 0.161 ± 0.23 kcal/mol; in data set [3], 0.379 ± 0.32 kcal/mol.
As to “SAGGSAGGSAGGKVVKKVKVLTKTPKGGYKVIEVDFTDPSAVVEEAKKAGLEVLKVEEVSAGGSAGGSAGGS [r10_882_TrMRF]”, the “folding stability dG unfold” value in data set [1] is -0.045 ± 0.079 kcal/mol; in data set [2], 0.728 ± 0.098 kcal/mol; in data set [3] it was 1.05 ± 0.094 kcal/mol.
The corresponding values for “SAGGSAGGSAGGLAPAPDGSPVAVLLDDGRVVVFDPETAELYVAFVTPDSVRVVPLPLDLSAGGSAGGSAGG [r7_527_TrMRF]” are -0.565 ± 0.071 kcal/mol, 0.332 ± 0.053 kcal/mol and 0.656 ± 0.038 kcal/mol.
For the sequence “SAGGSAGGSAGGLEEIRENGEALVFYPDGRVYRVDLKTGKITPPPGFKPENIVRVVFVKKSAGGSAGGSAGG [r7_566_TrMRF]”, the “folding stability dG unfold” value turned out to be 0.493 ± 0.1 kcal/mol in data set [1], 0.301 ± 0.076 kcal/mol in data set [2] and 0.0292 ± 0.14 kcal/mol in data set [3].
As for “SAGGSAGGSAGGLEELKKGFKKPVFVAKIEKEVRLLPNGDLIVRYKIEGPDLELELVFSSAGGSAGGSAGGS [r10_160_TrMRF]”, the “folding stability dG unfold” value in data set [1] came out at 2.6 ± 0.12 kcal/mol; in data set [2], 3.28 ± 0.12 kcal/mol; in data set [3], 3.56 ± 0.14 kcal/mol.
With “SAGGSAGGSAGGLEIEFWFFFPDEGYMIEVEWERDPDGPIEPTKITEIHPMPDGQPNPGFSAGGSAGGSAGG [r11_750_TrROS]”, the entries for the “folding stability dG unfold” value in data set [1], in data set [2] and in data set [3] were 1.81 ± 0.059 kcal/mol, 1.94 ± 0.087 kcal/mol and 2 ± 0.04 kcal/mol, respectively.
The corresponding values for “SAGGSAGGSAGGLGPDTPYATLSVTLTFTVRLKVRDPVTGKEYEIEYDVTLTFTFTVPASAGGSAGGSAGGS [r10_1116_TrMRF]” are 5.07 ± 0.54 kcal/mol, 5.58 ± 0.4 kcal/mol and 5.84 ± 0.31 kcal/mol.
With “SAGGSAGGSAGGLLKLKLKLKYEFTFKDENGNTYKVEKELTLVLELPPINETGKKNLVLSAGGSAGGSAGGS [r10_168_TrMRF]”, the figures for the “folding stability dG unfold” value in data set [1], in data set [2] and in data set [3] were 2.07 ± 0.036 kcal/mol, 3.12 ± 0.13 kcal/mol and 3.66 ± 0.063 kcal/mol, respectively.
Taken in the same sequence, the figures for “SAGGSAGGSAGGLPDREILEVRVLNPEREETGLRVRVEVVLPDGPVTIELPAEEVKELASAGGSAGGSAGGS [r10_771_TrMRF]” were -0.0431 ± 0.068 kcal/mol, 0.726 ± 0.071 kcal/mol and 1.03 ± 0.024 kcal/mol.
The corresponding values for “SAGGSAGGSAGGLPEDIELEVEPLEITLEDGSRVRILIARAPDPEIAAIDIEVFPPDDPKSAGGSAGGSAGG [r11_338_TrMRF]” are 0.417 ± 0.11 kcal/mol, 0.559 ± 0.13 kcal/mol and 0.51 ± 0.071 kcal/mol.
Taken in the same sequence, the figures for “SAGGSAGGSAGGLPPDVRLRVRITRPDGTVLEFDAPADVEIFFPDVPPEWRIEVDAEDVSAGGSAGGSAGGS [r10_774_TrMRF]” were 0.732 ± 0.061 kcal/mol, 2.09 ± 0.16 kcal/mol and 2.49 ± 0.057 kcal/mol.
Regarding “SAGGSAGGSAGGLPPGAKVKVEIEISYDDPFSGPTNEYNSFPVELNFEPPEPIPTDPRLNSAGGSAGGSAGG [r7_522_TrMRF]”, the “folding stability dG unfold” value was -0.683 ± 0.16 kcal/mol in data set [1], under -1 kcal/mol in data set [2] and -1.38 ± 0.55 kcal/mol in data set [3].
For “SAGGSAGGSAGGLSLKVKNKKTGKWYDIESIEVKKDPSSGKPVIKIKTSGPKEVEKELVSAGGSAGGSAGGS [r10_663_TrMRF]”, the “folding stability dG unfold” value is -0.894 ± 0.34 kcal/mol in data set [1], -0.34 ± 0.4 kcal/mol in data set [2] and -0.178 ± 0.22 kcal/mol in data set [3].
Taken in the same sequence, the figures for “SAGGSAGGSAGGLVAKVYRDGKEAVFYFDSPEEMVESIRPLFPDGKEVKVEVTTPEELFSAGGSAGGSAGGS [r10_1167_TrMRF]” were -0.677 ± 0.16 kcal/mol, 0.0392 ± 0.24 kcal/mol and 0.22 ± 0.27 kcal/mol.
In the case of “SAGGSAGGSAGGLVEQAVRAIREAKKAGLKEVVIYLSEEQKEAVKEAAEKEGLKVKIVPESAGGSAGGSAGG [r11_371_TrROS_Hall]”, the entries for the “folding stability dG unfold” value in data set [1], in data set [2] and in data set [3] were 0.244 ± 0.048 kcal/mol, 0.589 ± 0.086 kcal/mol and 0.814 ± 0.021 kcal/mol, respectively.
Take “SAGGSAGGSAGGLVLRGPNDSLLFVLYNPDTGLAVFYNPATNQLLVVNLPLPKPKPSELLSAGGSAGGSAGG [r7_383_TrMRF]”: the entries for the “folding stability dG unfold” value in data set [1], in data set [2] and in data set [3] were 2.38 ± 0.089 kcal/mol, 2.68 ± 0.15 kcal/mol and 2.81 ± 0.049 kcal/mol, respectively.
Taken in the same sequence, the figures for “SAGGSAGGSAGGLVLTSTSFTSSNTMVVTTTTLTTNADGSLSTTSTTTTTPVPPPKPGLPSAGGSAGGSAGG [r11_728_JUSTAS]” were 0.161 ± 0.042 kcal/mol, 0.443 ± 0.077 kcal/mol and 0.509 ± 0.092 kcal/mol.
With “SAGGSAGGSAGGMAASVSPSVSYDPNTPVTNTKYTITTDGGVTPTTVVTPVVTPPPSPALSAGGSAGGSAGG [r7_413_JUSTAS]”, the “folding stability dG unfold” value in data set [1] is -0.148 ± 0.16 kcal/mol; in data set [2] it was 0.198 ± 0.17 kcal/mol; in data set [3] it was 0.149 ± 0.11 kcal/mol.
